According to patent publication US20190010193A1 (REALTA, published 2019):
Ends that are not written are not given here.

T1: calreticulin (UniProt P27797 18-417, limits assumed)
T1 construct: also called CRT; recombinant calreticulin
T1 sequence (looked up): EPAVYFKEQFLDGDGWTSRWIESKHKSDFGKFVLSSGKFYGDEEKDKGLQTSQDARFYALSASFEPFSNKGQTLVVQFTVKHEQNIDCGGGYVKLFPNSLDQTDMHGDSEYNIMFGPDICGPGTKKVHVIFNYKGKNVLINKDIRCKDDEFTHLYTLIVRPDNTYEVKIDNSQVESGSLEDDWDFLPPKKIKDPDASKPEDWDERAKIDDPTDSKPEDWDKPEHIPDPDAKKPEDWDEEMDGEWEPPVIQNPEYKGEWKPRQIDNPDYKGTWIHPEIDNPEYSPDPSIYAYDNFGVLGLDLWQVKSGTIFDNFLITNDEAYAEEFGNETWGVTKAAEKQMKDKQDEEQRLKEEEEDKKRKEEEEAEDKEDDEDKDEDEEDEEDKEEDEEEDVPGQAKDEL


Experiments:
C1q (human) = C1q (human) (UniProt P02745); assay: cell-based or functional assay
C1q (human), sequence (P02745 23-245, chain 1 of 3): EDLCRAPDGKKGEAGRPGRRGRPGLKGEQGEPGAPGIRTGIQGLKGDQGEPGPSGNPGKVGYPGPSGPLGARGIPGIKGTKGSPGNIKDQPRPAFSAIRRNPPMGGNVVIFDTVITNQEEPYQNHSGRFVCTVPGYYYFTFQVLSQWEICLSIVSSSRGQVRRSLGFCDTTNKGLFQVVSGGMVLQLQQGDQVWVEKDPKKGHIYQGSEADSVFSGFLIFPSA
C1q (human), sequence (P02746 28-253, chain 2 of 3, further chain): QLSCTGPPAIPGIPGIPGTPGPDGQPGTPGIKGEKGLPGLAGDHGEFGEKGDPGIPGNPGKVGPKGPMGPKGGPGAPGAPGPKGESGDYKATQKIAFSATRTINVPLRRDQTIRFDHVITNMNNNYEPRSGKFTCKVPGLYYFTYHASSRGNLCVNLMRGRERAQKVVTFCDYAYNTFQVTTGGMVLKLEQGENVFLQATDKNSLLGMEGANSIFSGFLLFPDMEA
C1q (human), sequence (P02747 29-245, chain 3 of 3, further chain): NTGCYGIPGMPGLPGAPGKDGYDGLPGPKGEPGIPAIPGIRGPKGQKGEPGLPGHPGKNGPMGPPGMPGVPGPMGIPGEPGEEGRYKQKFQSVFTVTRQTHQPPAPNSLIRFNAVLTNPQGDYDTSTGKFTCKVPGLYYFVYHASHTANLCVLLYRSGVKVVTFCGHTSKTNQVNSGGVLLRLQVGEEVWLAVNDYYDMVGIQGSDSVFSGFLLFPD

calreticulin = biological target: T1, calreticulin; assay: plates coated with C1q, calreticulin and BSA, PA peptide added (FIG. 14A)
BSA = biological target: T2, BSA (UniProt P02769 25-607); assay: as above
T2 construct: Negative control
T2 sequence (P02769 25-607 limits assumed): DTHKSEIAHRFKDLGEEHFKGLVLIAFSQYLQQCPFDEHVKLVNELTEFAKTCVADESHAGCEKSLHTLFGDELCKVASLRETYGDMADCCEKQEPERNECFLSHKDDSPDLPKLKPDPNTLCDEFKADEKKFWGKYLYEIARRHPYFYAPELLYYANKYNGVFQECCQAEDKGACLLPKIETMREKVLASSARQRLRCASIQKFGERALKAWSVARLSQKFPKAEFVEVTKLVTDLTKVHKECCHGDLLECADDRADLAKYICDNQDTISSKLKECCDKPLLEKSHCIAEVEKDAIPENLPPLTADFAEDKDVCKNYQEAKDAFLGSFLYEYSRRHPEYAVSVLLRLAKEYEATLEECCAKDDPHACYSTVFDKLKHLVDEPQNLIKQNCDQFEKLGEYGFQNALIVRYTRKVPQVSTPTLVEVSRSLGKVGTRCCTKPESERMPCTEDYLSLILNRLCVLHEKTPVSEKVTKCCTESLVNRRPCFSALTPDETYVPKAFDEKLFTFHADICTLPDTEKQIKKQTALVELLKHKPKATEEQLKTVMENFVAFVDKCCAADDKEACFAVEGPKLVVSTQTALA

Binder	Hemolysis (%), sensitized sheep RBCs, factor B-depleted human serum, peptide 0.77 mM (C1q (human)) [%]	further results
IALILEPICCQERAA-dPEG02 (cysteine pairing not given here) [PA-dPEG02]	11.6	
IALILEPICCQERAA-dPEG03 (cysteine pairing not given here) [PA-dPEG03]	12.6	
IALILEPICCQERAA-dPEG12 (cysteine pairing not given here) [PA-dPEG12]	11.4	
IALILEPICCQERAA-dPEG04 (cysteine pairing not given here) [PA-dPEG04]	12.4	
IALILEPICCQERAA (also called PA; PIC1) [Polar Assortant peptide]		binding result (calreticulin): no binding; binding result (BSA): no binding
IALILEPICCQERAA-dPEG24 (cysteine pairing not given here) [PA-dPEG24]	2.99	Hemolysis in presence of PA-dPEG24 (Abs 412 nm), plasma of Donor O+ #1 with B+ erythrocytes (0.747 without peptide) (C1q (human)): 0.008 Abs 412 nm; inhibition of hemolysis of B erythrocytes by type-O plasma, dose-response (FIG. 8) (C1q (human)): > 95%
IALILEPICCQERAA-dPEG08 (cysteine pairing not given here) [PA-dPEG08]	34.7	
IALILEPICCQERAA-dPEG16 (cysteine pairing not given here) [PA-dPEG16]	12	
IALILEPICCQERAA-dPEG06 (cysteine pairing not given here) [PA-dPEG06]	44.8	
IALILEPICCQERAA-dPEG20 (cysteine pairing not given here) [PA-dPEG20]	11.4	
